Biological target: T1, CypA (Homo sapiens, UniProt P62937)
T1 construct: CypA was purified as previously described; made in house; host or cells: E. coli BL21 (DE3)
Assay: NMR titration of 15N-CypA, binding isotherms
Settings: chemical shift changes, 25° C.
Description: NMR sample preparation, spectroscopy, and data analysis. All NMR spectra were collected at 25° C. on a Varian 600-, 720- , 800-, or 900-MHz spectrometer in 50 mM NaPO4, pH 6.5, 150 mM NaCl, and 50 mM imidazole supplemented with 7% D2O. There were only modest changes to the resonance positions with imidazole present (data not shown), yet imidazole did increase the lifetime of each sample slightly and, thus, was maintained in all samples. Samples utilized for assignment purposes contained 0.5-1 mM protein, while all samples utilized for titration purposes contained 0.5 mM protein with the indicated final concentration of the titrant. All spectra were processed using NMRPipe software65 and analyzed using CCPNmr software.66 Unless otherwise noted, all pulse sequences were obtained from standard Varian Biopack libraries. Transverse relaxation optimized spectroscopy (i.e., TROSY-based) HSQC experiments were used only when noted.
NMR titration experiments were first conducted using 15N-CypA with unlabeled CD147, and chemical shift changes were only observed for extracellular recombinant CD147 constructs that included the membrane-proximal region of CD147 residues 206-214. […] However, both extracellular cyclophilin ligands of CD147, CypA and CypB, are known to readily traverse the membrane. […]

T1 sequence (P62937 whole entry): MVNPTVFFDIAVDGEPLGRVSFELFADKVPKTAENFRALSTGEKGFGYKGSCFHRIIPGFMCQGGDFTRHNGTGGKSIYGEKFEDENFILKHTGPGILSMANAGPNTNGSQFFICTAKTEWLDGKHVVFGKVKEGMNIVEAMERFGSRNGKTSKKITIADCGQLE

Kd: > 1 mM
B1: CD147: extracellular recombinant CD147 constructs that include membrane-proximal residues 206-214 (protein, UniProt P35613 138-323, looked up)
extracellular domain: EPGTVFTTVEDLGSKILLTCSLNDSATEVTGHRWLKGGVVLKEDALPGQKTEFKVDSDDQWGEYSCVFLPEPMGTANIQLHGPPRVKAVKSSEHINEGETAMLVCKSESVPPVTDWAWYKITDSEDKALMNGSESRFFVSSSQGRSELHIENLNMEADPGQYRCNGTSSKGSDQAIITLRVRSHLA
modifications: extracellular domain

From patent US20100278829A1, “DUAL INHIBITION OF IMMUNOPHILIN/CYCLOPHILIN FAMILY MEMBERS AND EMMPRIN IMMUNOGLOBULIN RECEPTOR SUPERFAMILY MEMBERS” (priority 2009, published 2010)
